The target of one experiment is FcγRIIIaF (human) (UniProt P08637). Description: Biacore. For orientation: In SPR one partner is held on a chip, and binding of the other changes the refractive index at the surface.
Experiment [1] deals with XENP12704, anti-IgE antibody containing human C3d fused to the C-terminus of Ckappa (human) (UniProt P01834). Briefly: ELISA, CR2-Fc coated; the concentration is that of XENP12704.
The target of experiment [2] is human V158 FcγRIIIa (human) (UniProt P08637). Briefly: Biacore.
Chain of human V158 FcγRIIIa (human) (P08637 other isoform, or with tags, fused parts or gaps limits assumed): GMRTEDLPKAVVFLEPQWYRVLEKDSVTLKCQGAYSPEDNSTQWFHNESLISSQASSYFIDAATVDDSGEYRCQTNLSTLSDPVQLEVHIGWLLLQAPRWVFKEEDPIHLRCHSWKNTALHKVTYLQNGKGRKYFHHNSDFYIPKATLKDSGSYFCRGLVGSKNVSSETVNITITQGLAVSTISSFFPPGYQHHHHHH
For experiment [3], the target named is human FcγRI (human) (UniProt P12314). Description: Biacore.
Chain of human FcγRI (human) (P12314 16-288 limits assumed): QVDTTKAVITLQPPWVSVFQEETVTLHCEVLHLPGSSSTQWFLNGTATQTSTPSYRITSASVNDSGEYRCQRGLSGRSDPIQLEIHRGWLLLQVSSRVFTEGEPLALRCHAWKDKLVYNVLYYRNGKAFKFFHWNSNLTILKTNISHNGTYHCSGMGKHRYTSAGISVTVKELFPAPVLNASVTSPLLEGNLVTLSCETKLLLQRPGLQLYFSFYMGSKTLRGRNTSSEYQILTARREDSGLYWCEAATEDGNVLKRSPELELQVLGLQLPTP
Experiment [4] has as its target human H131 FcγRIIa (human) (UniProt P12318). Description: Biacore.
In experiment [5] the target is recombinant human FcγRIIb protein (human) (UniProt P31994). Description: Biacore.
Chain of recombinant human FcγRIIb protein (human) (P31994 46-217 limits assumed): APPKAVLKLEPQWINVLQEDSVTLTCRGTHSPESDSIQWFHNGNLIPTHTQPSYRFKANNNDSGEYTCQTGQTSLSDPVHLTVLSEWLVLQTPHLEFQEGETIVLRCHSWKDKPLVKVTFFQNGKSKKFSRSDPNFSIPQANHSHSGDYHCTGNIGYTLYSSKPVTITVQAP
Experiment [6] has as its target human FcγRI (human) (UniProt P12314). Briefly: Biacore. This is another data set of the same source.
In a further experiment the target is FcγRIIaR (human) (UniProt P12318). Briefly: Biacore.
Chain of FcγRIIaR (human) (P12318 34-217 H167R limits assumed): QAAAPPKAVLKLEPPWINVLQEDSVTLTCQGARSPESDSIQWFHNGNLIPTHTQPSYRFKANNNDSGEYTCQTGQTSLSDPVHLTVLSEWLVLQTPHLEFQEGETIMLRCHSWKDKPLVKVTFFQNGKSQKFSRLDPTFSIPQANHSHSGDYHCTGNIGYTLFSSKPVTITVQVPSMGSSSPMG
The target in experiment [7] is human H131 FcγRIIa (human) (UniProt P12318). Briefly: Biacore. The source holds these as a separate data set.
Chain of human H131 FcγRIIa (human) (P12318 other isoform, or with tags, fused parts or gaps limits assumed): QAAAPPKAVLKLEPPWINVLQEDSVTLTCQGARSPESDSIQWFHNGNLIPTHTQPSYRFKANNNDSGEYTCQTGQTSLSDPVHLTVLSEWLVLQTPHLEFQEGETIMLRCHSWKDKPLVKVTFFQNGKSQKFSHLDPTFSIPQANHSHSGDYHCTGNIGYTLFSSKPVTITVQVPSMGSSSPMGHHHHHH
The target in experiment [8] is recombinant human FcγRIIb protein (human) (UniProt P31994). Briefly: Biacore. The source holds these as a separate data set.
For experiment [9], the target named is human V158 FcγRIIIa (human) (UniProt P08637). Description: Biacore. The source holds these as a separate data set.
Experiment [10] has as its target IgE (from a human IgE ELISA kit, Bethyl Laboratories) (human) (UniProt P01854). Briefly: sandwich ELISA, antibody coated as capture; the concentration is that of IgE. In general terms: An ELISA detects its analyte on a solid surface through an enzyme-linked reagent.
The target of experiment [11] is recombinant human FcγRIIb protein (human) (UniProt P31994). Description: Biacore SPR, antibody captured on protein A/G, FcγRIIb injected.

This passage reports Fold, Kd and EC50 (read off the curve) results from patent publication US20140212436A1.

Read-outs that look alike come from different tables or passages of the source.

Chain of FcγRIIIaF (human) (P08637 17-208 limits assumed): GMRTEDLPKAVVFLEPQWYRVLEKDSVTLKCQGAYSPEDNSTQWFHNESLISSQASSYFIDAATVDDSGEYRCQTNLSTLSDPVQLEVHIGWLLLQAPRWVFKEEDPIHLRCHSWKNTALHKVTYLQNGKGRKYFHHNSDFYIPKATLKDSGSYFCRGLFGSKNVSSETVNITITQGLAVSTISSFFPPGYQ
Chain of IgE (from a human IgE ELISA kit, Bethyl Laboratories) (human) (P01854 other isoform, or with tags, fused parts or gaps): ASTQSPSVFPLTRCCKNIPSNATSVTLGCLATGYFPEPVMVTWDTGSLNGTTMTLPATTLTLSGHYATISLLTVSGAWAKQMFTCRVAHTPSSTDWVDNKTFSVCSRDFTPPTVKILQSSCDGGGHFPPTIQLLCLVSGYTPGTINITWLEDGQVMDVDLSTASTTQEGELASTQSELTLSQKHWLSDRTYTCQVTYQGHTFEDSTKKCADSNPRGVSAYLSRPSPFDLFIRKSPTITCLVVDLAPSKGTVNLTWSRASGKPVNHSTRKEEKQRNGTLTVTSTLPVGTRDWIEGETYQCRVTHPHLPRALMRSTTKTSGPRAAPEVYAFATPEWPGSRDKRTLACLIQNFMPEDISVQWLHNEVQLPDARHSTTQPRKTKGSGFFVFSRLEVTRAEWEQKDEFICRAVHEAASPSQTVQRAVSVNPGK
Chain of XENP12561 (hSCR1-2 Fc fusion) (P20023 21-148 limits assumed): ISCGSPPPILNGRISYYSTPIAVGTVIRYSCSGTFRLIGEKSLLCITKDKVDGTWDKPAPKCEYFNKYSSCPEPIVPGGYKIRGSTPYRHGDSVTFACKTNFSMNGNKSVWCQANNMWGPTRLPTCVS
Chain of XENP12562 (hSCR1-4 Fc fusion) (P20023 21-273 limits assumed): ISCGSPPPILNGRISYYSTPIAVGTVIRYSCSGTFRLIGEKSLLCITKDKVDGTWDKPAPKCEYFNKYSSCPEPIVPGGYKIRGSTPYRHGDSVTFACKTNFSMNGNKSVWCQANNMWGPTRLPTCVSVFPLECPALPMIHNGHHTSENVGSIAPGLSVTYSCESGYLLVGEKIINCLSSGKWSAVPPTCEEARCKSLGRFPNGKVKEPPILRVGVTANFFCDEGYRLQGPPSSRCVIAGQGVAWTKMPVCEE

As usually defined, the Kd is the concentration at which binding is half-saturated. With “anti-CD19 antibody HuAM4G7, WT (native) IgG1 Fc (antibody; other documents disagree on this pair)”, in the experiment with FcγRIIIaF (human), the Fold is 1 and the dissociation constant (Kd) worked out at 1350 nM.
As a reminder, the EC50 (read off the curve) is the midpoint of the concentration-response curve. Read a low EC50 (read off the curve) as greater potency. As for “XENP12561 (hSCR1-2 Fc fusion) (from UniProt P20023 21-148)”, the concentration for a half-maximal effect (EC50 (read off the curve)) in experiment [1] worked out at 0.02 µg/mL.
As for “anti-CD19 antibody HuAM4G7, IgG1 Fc variant S239D/I332E”, the dissociation constant Kd in [2] worked out at 6.8 nM; with human FcγRI (human) [3] it was 0.14 nM; in [4], 220 nM; in experiment [5], 88 nM; in the experiment with human FcγRI (human) [6], 0.0374 nM; with FcγRIIIaF (human) it was 28.2 nM. Moreover, the values for the Kd (in the experiment with FcγRIIaR (human); in experiment [7]; in experiment [8]) were 68.6 nM, 163 nM and 101 nM, respectively.
Regarding S239D (antibody), the Fold in experiment [9] was found to be 8.14; in the experiment with human FcγRI (human) [6], 3.53; with FcγRIIIaF (human), 6.32; in the experiment with FcγRIIaR (human), 3.73; in [8], 3.6. Also, the equilibrium dissociation constant (Kd) came out at 23.5 nM in experiment [9]; 0.0934 nM in the experiment with human FcγRI (human) [6]; 214 nM in the experiment with FcγRIIIaF (human); 230 nM in the experiment with FcγRIIaR (human); 590 nM in [7]; 408 nM in [8].
In turn, MaE11_IgG1_G236R/L328R (antibody) came in with an EC50 (read off the curve) in experiment [10] of 0.05 µg/mL.
On to “XENP12562 (hSCR1-4 Fc fusion) (from UniProt P20023 21-273)”, for which the EC50 (read off the curve) in experiment [1] is 0.003 µg/mL.
For “anti-CD19 antibody HuAM4G7, IgG1 Fc variant S267E/L328F”, the Fold with human FcγRI (human) [3] turned out to be 1.2; in experiment [4] it was 0.97; in [5] it was 429; in [9], 0.038; with human FcγRI (human) [6], 1.5; with FcγRIIaR (human) it was 275. The Fold worked out at 0.7 in experiment [7] and 242 in [8]. For the same substance, the Kd with human FcγRI (human) [3] was 0.23 nM; in experiment [4] it was 880 nM; in experiment [5], 4.2 nM; in experiment [9], 5040 nM; in the experiment with human FcγRI (human) [6], 0.22 nM; with FcγRIIaR (human), 3.12 nM. For the same substance, the dissociation constant Kd stood at 923 nM in experiment [7] and 6.06 nM in [8].
Regarding “anti-CD19 antibody HuAM4G7, IgG1 Fc variant S239D/S267E”, the Fold amounted to 3 in experiment [2]; 1.6 with human FcγRI (human) [3]; 1.2 in experiment [4]; 150 in experiment [5]; 3.74 in [9]; 23.2 with human FcγRI (human) [6]. For the same substance, the Fold was determined as 2.62 with FcγRIIIaF (human), 120 in the experiment with FcγRIIaR (human), 1.27 in experiment [7] and 111 in experiment [8]. The Kd in [2] came out at 62 nM; in the experiment with human FcγRI (human) [3], 0.17 nM; in experiment [4], 700 nM; in experiment [5] it was 12 nM; in [9] it was 51.2 nM; with human FcγRI (human) [6] it was 0.0142 nM. For the same substance, the dissociation constant Kd with FcγRIIIaF (human) is 516 nM; with FcγRIIaR (human), 7.16 nM; in experiment [7], 510 nM; in [8], 13.3 nM.
For the substance S267E (antibody), the Fold amounted to 0.29 in experiment [2]; 1.1 with human FcγRI (human) [3]; 0.89 in experiment [4]; 30 in experiment [5]; 0.381 in experiment [9]; 2.81 with human FcγRI (human) [6]. Besides, the Fold was determined as 29.5 in the experiment with FcγRIIaR (human), 0.753 in experiment [7] and 20.4 in [8]. The dissociation constant Kd was determined as 690 nM in [2]; 0.26 nM in the experiment with human FcγRI (human) [3]; 960 nM in experiment [4]; 60 nM in experiment [5]; 503 nM in [9]; 0.117 nM with human FcγRI (human) [6]. Moreover, the dissociation constant Kd with FcγRIIaR (human) is 29.1 nM; in [7], 859 nM; in experiment [8] it was 71.9 nM.
Take “anti-CD19 antibody HuAM4G7, WT (native) IgG1 Fc”: the Fold (in experiment [2]; with human FcγRI (human) [3]; in [4]; in experiment [5]; with FcγRIIaR (human)) was 1 throughout. Also, the Kd in experiment [2] was 200 nM; with human FcγRI (human) [3] it was 0.28 nM; in experiment [4], 850 nM; in [9], 191 nM; in the experiment with human FcγRI (human) [6] it was 0.329 nM; in the experiment with FcγRIIaR (human) it was 859 nM. For the same substance, the equilibrium dissociation constant (Kd) in experiment [7] turned out to be 646 nM; in [8], 1470 nM; in experiment [11], 1800 nM.
As to “anti-CD19 antibody HuAM4G7, IgG1 Fc variant G236D/S267E”, the Kd in the experiment with human FcγRI (human) [3] came out at 3.2 nM; in experiment [4], 2200 nM; in experiment [5], 25 nM; in experiment [9], 579 nM; with human FcγRI (human) [6], 3.71 nM; in [7], 2730 nM. Also, the Kd in experiment [8] stood at 26.6 nM.
Take L328F (antibody): the Kd in experiment [9] stood at 58400 nM; with human FcγRI (human) [6] it was 0.452 nM; in the experiment with FcγRIIIaF (human), 5110 nM; in the experiment with FcγRIIaR (human), 166 nM; in experiment [8], 541 nM.
